Data taken from article PMC7145319 (2019).
One block for each binder: values may come before it.

Target: T1, MOG35-55 peptide on I-Ab (mouse)
T1 peptide: GWYRSPFSRVV
Assay: activation reporter or marker

binding result: recognises
B1: EAE3-CD4 (TCR)
alpha TRAV14D-1 TRAJ43 CDR3: CAASGANNNNAPRF
beta TRBV3 TRBJ2-5 CDR3: CASSLEGHQDTQYF

binding result: recognises
B2: EAE2-CD4 (TCR)
alpha TRAV12-1 TRAJ23 CDR3: CALRNYNQGKLIF
beta TRBV16 TRBJ1-4 CDR3: CASSLDQGWDERLFF
